Experiments:
[1] = molecular target: T1, biotinylated mPD-1-Fc (BPS Bioscience) (mouse, UniProt Q02242 25-169, biotinylated (site not stated)); test: mPD-1/mPD-L1 binding inhibition
T1 chain: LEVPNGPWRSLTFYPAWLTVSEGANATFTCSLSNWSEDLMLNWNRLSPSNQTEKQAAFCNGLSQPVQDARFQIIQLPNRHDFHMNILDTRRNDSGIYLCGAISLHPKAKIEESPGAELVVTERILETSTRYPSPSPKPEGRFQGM

[2] = molecular target: hPD-1-Fc (human PD-1 ectodomain fused to human IgG1 Fc, R&D) (human, UniProt Q15116 25-170); test: hPD-1/hPD-L1 binding inhibition
[3] = molecular target: mPD-L1-Fc (mouse PD-L1 ectodomain fused to human IgG1 Fc, BioLegend) (mouse, UniProt Q9EP73 19-239); test: mPD-1/mPD-L1 binding inhibition
mPD-L1-Fc (mouse PD-L1 ectodomain fused to human IgG1 Fc, BioLegend), sequence (Q9EP73 19-239): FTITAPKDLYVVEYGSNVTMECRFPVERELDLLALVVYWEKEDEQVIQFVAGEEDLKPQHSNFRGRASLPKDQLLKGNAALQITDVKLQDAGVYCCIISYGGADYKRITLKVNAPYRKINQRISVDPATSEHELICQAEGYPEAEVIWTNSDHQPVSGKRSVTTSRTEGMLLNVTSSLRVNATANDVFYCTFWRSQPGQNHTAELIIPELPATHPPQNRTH

[4] = molecular target: biotinylated hPD-L1 fused to human IgG Fc (BPS Bioscience) (human, UniProt Q9NZQ7 19-238, biotinylated (site not stated)); test: hPD-1/hPD-L1 binding inhibition
biotinylated hPD-L1 fused to human IgG Fc (BPS Bioscience), sequence (Q9NZQ7 19-238): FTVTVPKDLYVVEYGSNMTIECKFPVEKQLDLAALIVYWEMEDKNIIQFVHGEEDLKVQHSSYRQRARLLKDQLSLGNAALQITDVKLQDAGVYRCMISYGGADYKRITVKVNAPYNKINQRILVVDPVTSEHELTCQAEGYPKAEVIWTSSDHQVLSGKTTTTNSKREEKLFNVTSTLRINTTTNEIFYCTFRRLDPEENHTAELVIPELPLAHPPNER

hPD-1-Fc (human PD-1 ectodomain fused to human IgG1 Fc, R&D), sequence (Q15116 25-170): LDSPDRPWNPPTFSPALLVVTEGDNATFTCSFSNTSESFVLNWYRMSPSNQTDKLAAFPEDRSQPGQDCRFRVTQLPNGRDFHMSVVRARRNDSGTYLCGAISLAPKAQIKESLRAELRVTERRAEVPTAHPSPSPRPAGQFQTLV

B1: Nb11 (anti-PD-1 nanobody) (VHH)
VHH: QVQLVQSGGGSVQAGDSLRLSCAVSGHPDSSYSMAWFRQAPGKERELVALISWSGAITHYSDSVKDRFTISRDNAKNEMYLQMDSLKPEDTAVYFCQADDPTSELNQYWGQGTQVTVSS
With B1 as the binder, how does the IC50 [1] read?
The IC50 was 1.71 nM.

And the IC50 [2]?
The IC50 was 5.85 nM.

B2: Nb6p-Fc (Nb6p fused to mouse IgG2a Fc domain including hinge) (Fc fusion)
chain: AEVQLVESGGGLVQAGGSLRLSCAAAGRSFNSNAMGWVRQAPGKEREIVAVISATGSYTYYEDSVKGRFTISRDNSKNTVSLQMSSLSSEDTAVYYCAGSRTAALTTIMTLFNYWGQGTQVTVSSPGPRGPTIKPCPPCKCPAPNLLGGPSVFIFPPKIKDVLMISLSPIVTCVVVDVSEDDPDVQISWFVNNVEVHTAQTQTHREDYNSTLRVVSALPIQHQDWMSGKEFKCKVNNKDLPAPIERTISKPKGSVRAPQVYVLPPPEEEMTKKQVTLTCMVTDFMPEDIYVEWTNNGKTELNYKNTEPVLDSDGSYFMYSKLRVEKKNWVERNSYSCSVVHEGLHNHHTTKSFSRTPGK
For B2, which IC50 [3] is on record?
The IC50 was 0.889 nM.

And the IC50 [4]?
Its IC50 is 0.498 nM.

B3: Nb11-Fc (Nb11 fused to mouse IgG1 Fc domain including hinge) (Fc fusion)
chain: AQVQLVQSGGGSVQAGDSLRLSCAVSGHPDSSYSMAWFRQAPGKERELVALISWSGAITHYSDSVKDRFTISRDNAKNEMYLQMDSLKPEDTAVYFCQADDPTSELNQYWGQGTQVTVSSGCKPCICTVPEVSSVFIFPPKPKDVLTITLTPKVTCVVVDISKDDPEVQFSWFVDDVEVHTAQTQPREEQFNSTFRSVSELPIMHQDWLNGKEFKCRVNSAAFPAPIEKTISKTKGRPKAPQVYTIPPPKEQMAKDKVSLTCMITDFFPEDITVEWQWNGQPAENYKNTQPIMDTDGSYFVYSKLNVQKSNWEAGNTFTCSVLHEGLHNHHTEKSLSHSPGK
B3 was tested. Which IC50 [1] did it give?
Its IC50 is 0.0439 nM.

What about the IC50 [2] of the same binder?
Its IC50 is 0.147 nM.

B4: Nb6p (anti-PD-L1 nanobody) (VHH)
VHH: EVQLVESGGGLVQAGGSLRLSCAAAGRSFNSNAMGWVRQAPGKEREIVAVISATGSYTYYEDSVKGRFTISRDNSKNTVSLQMSSLSSEDTAVYYCAGSRTAALTTIMTLFNYWGQGTQVTVSS
B4 was tested. Which IC50 [3] did it give?
Its IC50 is 6.85 nM.

And the IC50 [4]?
The IC50 was 3.34 nM.
